Measurements as given in the nanobody polyreactivity screen of Harvey et al. (2022).

Experiment: yeast display, Sf9 membrane polyspecificity reagent, FACS + sequencing; frameworks hold sequencing errors
In short: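 Galactose-induced (36–48 hours) yeast carrying a synthetic nanobody display library were exposed to 10% biotinylated, detergent-solubilized Sf9 membrane reagent at 4 °C for 1 hour. FACS followed streptavidin microbead enrichment, using low and high (top ~1%) gates for expression (anti-HA) and reagent binding (streptavidin). Colony PCR, MiSeq 2 × 250 sequencing and CDR-length filtering followed. Labels for polyreactivity reflect the gate of origin.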

| Sequence | polyreactivity (PSR sort gate) |
| --- | --- |
| QVQLVESGGGLVQAGGSLRISCAAYGTIFSDYAMGWYKQAPGKERELVAAISSGGNTNYADSVKGRFTISRDNAKNTVYLQMNSLKPEDTAVYYCAAVYNTTYTLLPEYSDVKYYYWGQGTQVTVSS | low polyreactivity |
| QVQLEESGGGLVQAGGSLRLSCAASGSTFYYNAMGWYRQAPGKEREFVARISRSGGSTYADSVKGRFTISRDNAKNTVYLQMNSLKPEDTGVYYCNADAYGTPEFTSYAVRYDYWGQGTQVTVSS | low polyreactivity |
| QVQLVESGGGLVQAGGRLRLSCAASGSIFSHNVMGWYRQAPGKEGELVAAITYRGGSTYYADSVKGRFTISRDNAKNTVYLQMNSLKPEDTAVYYCSALNEVSTYHGFDYWGQGTQVTVSS | low polyreactivity |
| QVQLVESGGGLVQAGGSLRLSCAASGFIFAYNAMGWYRQAPGKERELVASIRTRGGSTYYADSVKGRFTISRDNAKNTVYLQMNSLKPEDTAVYYCAARPFPRRYDYWGQGTQVTVSS | low polyreactivity |
| QVQLVESGGGLVQAGGSLRLSCAASGSIFRLNVMGWYRQAPGKERELVAVITGSGTRTNYADSVKGRFTISRDNAKNTVYLQMNSLKPEDTAVYYCNRVTTPTVTYGYGKMDYWGHGTQVTVSS | high polyreactivity |
| QVQLVESGGGLVQAGGSLRLSCAASGSTFYANTMGWYRQAPGKERELVAAISRRGGRTYYADSVKGRFTISRDNAKNTVYLQMNSLKPDDTAVYYCARRGYSSRTIKRYNYWGQGTQVTVSS | high polyreactivity |
| QVQLVESGGGLVQAGGSLRLSCAASGFIFWPYAMGWYRQAPGKESELVAAITTGGSTNYADSVKGRFTISRDNAKNTVYLQMNSLKPEDTAVYYCAKGYYFGYYEFDYWGQGTQVTVSS | high polyreactivity |
| QFQLEESGGGLVQAGGSLRLSCAASGFTFFTYAMGWYRQAPGKERELVAAITTGGSTNYADSVKGRFTISRDNAKNTVYLQMNSLKPEDTAVYYCAVYGYVYGSAVQYDYWGQGTQVTVSS | low polyreactivity |
| QVQLVESGGRLVQAGGSLRLSCAASVITFLGNAMGWYRQAPGKERELVAAISASGGRTYYADSVKGRFTISRDNAKNTVYLLMNSLKPEDTAVYYCAAASKPWYYYWGQGTQVTVSS | high polyreactivity |
| QVQLVESGGGLVQAGGSLRLICAASGNTFYRNAMGLYRQAPGKERELVAAIDYSAGSTYYADSVKWRFTISRDNAKYSVFFQMKSLNPEDTAVYYCAADARTSRGGRYYYWGQGTQVTVSS | low polyreactivity |
| QVQLVESGGGLVQAGGSLRLRCAASGITFRYYAMGWYRQAPGQERELVAAITRSGSTTYADSVKGRFTISRDNAKNTVYLQLNSLKPEDTAVYYCAVDYYYLTGGVDYWGQGTQVTVSS | low polyreactivity |
| QVQLVESGGGLVQAGGSLRLSCAASGFIFYYYAMGWYRQAPGKERELVAAISWSGARTYYADSVKGRFTISRDNAKNTVYLQMNSLKPEDTAVYYCNAVAFYPRSSRSWRLDYWGQGTQVTVSS | high polyreactivity |
| QVQLVESGGGLVQAGGSLRLSCAASGNTLDWYAMGWYRQAPGKERELVAAISSAGSTSYADSVKGRFTISRDNAKNTVYLQMNSLKPEDTAVYYCNVDVYSKDANFQSFASEYDYWGQGTQVTVSS | low polyreactivity |
| QVQLVESGGGLVQAGGSLRLSCAASGFTFSKYAMGWYRQAPGTERELVASIDDGGSTNYADSVKGRFTISRDNAKTTVYLQMNRLNPEDTAVYYCNASYPTGYWYYVIVQYDYWGQGTQVTVSS | low polyreactivity |
| QVQLVESGGRLVQAGGSLRLSCAASGITFIDYAMGWYRQAPGKERELVAAIRYSAGSTYYADSVKGRFTISRDNAKNTVYLQMNSLKPEDTAVYYCARTTPSGRQYRRYDYWGQGTQVTVSS | low polyreactivity |
| QVQLQESGGGLVQAGGSLRLSSAASGTISVHATMGWYRQAPGKERELVAGITDGANTYYADSVKGRFTISRDNSKNTEYLQMNSLKPEDTAVYYCAAYYGTVVHFTYWGQGTQVTVSS | low polyreactivity |
| QVQLVESGGGLVQAGGSLRLSCAASGNTFYAYAMGWYRQAPGKERELVAAIARGGNTYYADSVKGRFTISRDNAKNTVYLQMNSLKPEDTAVYYCHAYYPIRSSPYGYYYWGQGTQVTVSS | high polyreactivity |
| QVQLVESGGGLVQAGGSLRLSCAASGSIFTLNTMGWYIQAPGKERELVAVISRSGDRTYYADSVKGRFTISRDNAKNTVYLQMNSLKPEDTAVYYCAADTTKRVRGYDYWGQGTQVTVSS | high polyreactivity |
| QDQLVESGGGLVQAGGRLRLSCAASGSTVGVYAMGWYRQAPGKERELVAAISYTGGSSYYADSVKGRFTISRDNAKNTVYLQMNSLKPEDTAVYYCAVEVGYTDSPYSYDYWGQGTQVTVSS | low polyreactivity |
| QVQLVESGGGLVQAGGSLRLSCAASGITFSGYGMGWYRQAPGKERELVAAISRSGGSTYYADSVKGRFTISRDNAKNTVYLQMNSLKPEDTAVYYCATASRTSRTGWAGYYWGQGTQVTVSS | high polyreactivity |
| QVQLVESGGGLVQAGGSLRLSCAASGIIFTVYAMGWDRQAPGKERELVAAISFSTGRTYYADSVKGRFTISRDNAKNTVYLQMNSLKPEDTAVYYCAASAGHTFSKPFDRGRYGYWGQGTQVTVSS | high polyreactivity |
| QVQLVESGGGLVQAGGSLRLSCAASGSIITYYAMGGYRQAPGKERELVAGISARGGSTRYADSVKGRFTISRDNAKNTVYLQMNSLKPEDTAVYYCAADSRTNGYDYWGQGTQVTVSS | high polyreactivity |

| Sequence | polyreactivity (PSR sort gate) |
| --- | --- |
| QVQLVESGGGLVQAGGSLRLSCAASGSIFSYNAMGWYRQAPGKERELVAAITSGDSTNYADSVKGRFTISRDNAKNTVYLQMNSLKPEDTAVYYCAADPVLPAFGYVGTSLGDYWGQGTQVTVSS | low polyreactivity |
| QVQLEDSGGGVVQAGGSLRLSCAASGSIYYPYAMGWNRQAPGKERELVARITSGGSTHYADSVKGRFTISRDNAKNTVYLQMNSLKPEETAVYYCNADYWFVESDYWGKGTQVTVSS | low polyreactivity |
| QVQLVESGGGLVQARGSLRLSCAASGRIFTTYAMGWYRQAPGKESELVAAISQTGGSTYYADSVKGRFTISRDNAKNTVYLKMNSLKPEDTAVYYCNAGPAGYYDDDYWGQGTQVTVSS | low polyreactivity |
| QVQLVESGGGLVQAGGSLRLSCAASGFIFRYYAMGWYRQAPGKEREFVAAISSSGGSTYYADSVKGRFTISRDNAKNTVYLQMNSLKPEDTAVYYCAARSRQDNFYRSYNSWGQGTQVTVSS | high polyreactivity |
| QVQLVESGGGLVQAGGSLRLSCAASGCTRWYAMGWYRQAPGKERELVAAINGRGVSTYYAVSVKGRFRISRDNAKHTVYLQMNSLKQADTAVYYCAAYAYYDRYRRYDYWGQGTQVTVST | low polyreactivity |
| QVQLVESGGGLVQAGGSLSLSCAASGSIFKFNTMGWSRQAPRKERELVAAISRSGGSTYYADSVKGRFTISRDNAKNNVYLQMNSLKPEDTAVYYCAARQFSGPYVRYGYWGQGTQVSVSS | high polyreactivity |
| QVQLVESGGGLVQAGGSLRLSCAASGSIFHGYGMGWYRPAPGKERELVASITWIGGDTYYADSVKGRFTISRDNAKNTVYLQMNSLKPEDTAVYYCNAEWVVTYIYDYWGQGTQVTVSS | low polyreactivity |
| QVHLVESGGGLVQAGGSLRLICAASGYTFAFYAMGCYRQAPGKERELVAAISAGGGRTYYADSVKGRFTISRDNANNTVYLQMNSLKPEDTAVYYCATDLIQGAAPFRYDYWGQGTQVTVSS | low polyreactivity |
| QVQLVESGGGLVQAGGSLRLSCAASGSIFDFYAMGWYRQAPGKERESVAAISWSGGSTYADSVKGRFTISRDNAKNTVYLQMNSLKPEDTAVYYCAARWGTYWGVLGGDPDIDYDYWGQGTQVTVSS | low polyreactivity |
| QVQLVESGGGLVQAGGSLRLSCAASGSTFETNAMGLYRQATRKERELVAAISYNGGSTYADSVKGRFTISRDNAKNTVYLHMNSLKPEDSAVYYCAAVRSPRGLGGYWGQGTQVTVAS | low polyreactivity |
| QVQLVESGGGLVQAGGSLRLSCAASGRIFGVYAMGWYRQAPGKERELVADISWSGSGTYADSVKGRFTISRDNAKNTVYLQMNSLKPEDTAVYYCNVDPAQIHAGYVGYDYWGQGTQVTVSS | low polyreactivity |
| QVQLVESGGGLVQAGGSHRLRCAAYGFIFIYAMGRYRQAPGKQRELVASIESGVSTDYADSVKGRFTISRDNAKNSVYFQMNSLKQEDTAVYYCAADQWSSLNYDYWGQGSQVTVSS | low polyreactivity |
| QVQLVESGGGLVQAGGSLRISCAASGFTFWLYAMGWYRQAPGKERELVATISWSGGSTYYADSVKGRFTISRDNAKNTVYVQMNSLKPEDTAVYYCATRYRSYSVFGYGYWGQGTQVTVSS | high polyreactivity |
| QVQLVESGGGLVQAGGSLRLSCAASGFIFGYNAMGWYRQAPGKERELVAAISGSGGRTYYADSVKGRFTISRDNAKNTVYLQMNSLIPEDTAVYYCAVADRRGLGYWGQGTQVTVSS | high polyreactivity |
| QVQLVESGGGLVQAGGSLRLSCAASGRTFRWYAMGWYRQAPGKERELLASITWSGGSTYYADSVKGRFTISRDNAKNTVYLQMNSLKPEDTAVYYCAAVGRQSNYYVDYDYWGQGTQVTVSS | high polyreactivity |
| QVQLVESGGGLVQAGGSLRLSCAASGFTFYAYAMGWYRQAPGKERELVAAISTSGTDTYYADSVKGRFTISRDNAKNTVYLQMNSLKPEDTAVYYCAAELYLYGFYEPIYPYSYDYWGHGTQVTVSS | low polyreactivity |
| QVQLVESGGGLVQAGGSLRLSCAASGRTFGWYAMGWYRQAPGKERELVASITQRGGRTYYADSVKGRFTISRDNAKNTVYLQMNSLIPEDTAVYYCAARGATVSSRIYGYWGQGTQVTVSS | high polyreactivity |
| QVLLQESGGGLVQAGGSLRLGCAASGTISHAYYMGRYHQAPGKEREFVAAITYGTNTYYADSVKGRFTISRDNAKNTVYLQMNSLKPEDTAVYYCSATAGYNGAHDYWGQGTQVTVSS | low polyreactivity |
| QVQLVESGGGLVQAGGSLRLICAASGFTFSQYAMGWYREAPGKERELVAAISWNGGSTYYADSVKGRFTISRDNAKNTVYLQMNSLKPEDTAVYYWNRRWPFVRFYYWGQGTQVTVSS | high polyreactivity |
| QVQLVETGGGLVQAGGSLRLSCAPSGINFTGYDMGWYRQAPGKERELVAAITSGGSTYYADSVKGRFTISRDNAKNTVYLQMNSLKPEDTAVYYCAARAKLTGYWGQGTQVTVSS | high polyreactivity |
| QVQLVESGGGLVQAGGSLRLSCAASGSTFSYAMGWYRQAPGKERELVAAITIGGRTSYADSVKGRFTISRDNAKNTVYLQMNSLNPEDTAVYYCAADDLPGMDYWGQGSQVTVSS | low polyreactivity |
